In US20240343823A1 (Ablynx, published 2024):
Where two headings read alike, the source gives them in different places.

Columns and labels:
Assay in all cases: cell-based or functional assay
[1] = target: T1, human GPC3 on tumor cell lines (HepG2, Huh-7, NCI-H661, MKN-45, NCI-H23, BxPC-3, NCI-H292) (human, UniProt P51654 25-554)
[2] = target: T1, human GPC3 on tumor cell lines (HepG2, …); remark: listed apart in the source
[3] = target: T1, human GPC3 on tumor cell lines (HepG2, …); remark: listed apart in the source
[4] = target: T1, human GPC3 on tumor cell lines (HepG2, …); remark: listed apart in the source

B1: A022600170 (other)
chain: DVQLVESGGGVVQPGGSLRLSCVASGYVHKINFYGWYRQAPGKEREKVAHISIGDQTDYADSAKGRFTISRDESKNTVYLQMNSLRPEDTAAYYCRALSRIWPYDYWGQGTLVTVSSGGGGSEVQLVESGGGLVQPGGSLRLSCVASGFTFSSFAMTWVRRPPGKGLEWVATITNGGVTSYRDSVKGRFTISRDNAKNTLYLEMTSLNPEDTAVYICANARRTGPRAPTDIGSYRGQGTLVTVSSGGGGSGGGGSGGGGSGGGGSGGGGSGGGGSGGGGSEVQLVESGGGLVQPGGSLRLSCVASGSIFRSVFSSSTMEWYRQPPGKKRELVARIAPGDGTNYGALYADSVKGRFTISRDDAKKTVDLQMNSLKPEDTGVYFCASGVAWGQGTLVTVSSGGGGSGGGSEVQLVESGGGVVQPGGSLRLSCAASGFTFRSFGMSWVRQAPGKGPEWVSSISGSGSDTLYADSVKGRFTISRDNSKNTLYLQMNSLRPEDTALYYCTIGGSLSRSSQGTLVTVSSA
HepG2 on Incucyte IC50 [1]: 319 pM
HepG2 on Incucyte Max % killing [1]: 97%
Huh7 on xCELLigence IC50 [1]: 186 pM
Huh7 on xCELLigence Max % killing [1]: 103%

B2: A022600427 (other)
chain: DVQLVESGGGVVQPGGSLRLSCVASGYVHKINFYGWYRQAPGKEREKVAHISIGDQTDYADSAKGRFTISRDESKNTVYLQMNSLRPEDTAAYYCRALSRIWPYDYWGQGTLVTVSSGGGGSEVQLVESGGGVVQPGGSLRLSCAASGFTFSSFAMTWVRRPPGKGLEWVATITNAGVTSYADSVKGRFTISRDNAKNTLYLQMNSLRPEDTALYICANARRTGPRAPTDIGSYRGQGTLVTVSSGGGGSGGGSEVQLVESGGGVVQPGGSLRLSCAASGSIFRSVFSSSTMEWYRQAPGKKRELVARIAPGEGTYYGALYADSVKGRFTISRDNAKNTVYLQMNSLRPEDTALYYCASGVAWGQGTLVTVSSGGGGSGGGSEVQLVESGGGVVQPGGSLRLSCAASGFTFRSFGMSWVRQAPGKGPEWVSSISGSGSDTLYADSVKGRFTISRDNSKNTLYLQMNSLRPEDTALYYCTIGGSLSRSSQGTLVTVSSA
IC50 (M) BxPC-3, xCELLigence human TDC assay [2]: > 1e-07 M
IC50 (M) HepG2, xCELLigence human TDC assay [2]: 1.03e-10 M
IC50 (M) Huh-7, xCELLigence human TDC assay [2]: 1.37e-10 M
IC50 (M) NCI-H23, xCELLigence human TDC assay [2]: > 1e-07 M
IC50 (M) NCI-H661, xCELLigence human TDC assay [2]: 1e-10 M

B3: A022600425 (other)
chain: DVQLVESGGGVVQPGGSLRLSCVASGYVHKINFYGWYRQAPGKEREKVAHISIGDQTDYADSAKGRFTISRDESKNTVYLQMNSLRPEDTAAYYCRALSRIWPYDYWGQGTLVTVSSGGGGSEVQLVESGGGVVQPGGSLRLSCAASGSIFRSVFSSSTMEWYRQAPGKKRELVARIAPGEGTYYGALYADSVKGRFTISRDNAKNTVYLQMNSLRPEDTALYYCASGVAWGQGTLVTVSSGGGGSGGGGSGGGGSGGGGSEVQLVESGGGVVQPGGSLRLSCAASGFTFSSFAMTWVRRPPGKGLEWVATITNAGVTSYADSVKGRFTISRDNAKNTLYLQMNSLRPEDTALYICANARRTGPRAPTDIGSYRGQGTLVTVSSGGGGSGGGSEVQLVESGGGVVQPGGSLRLSCAASGFTFRSFGMSWVRQAPGKGPEWVSSISGSGSDTLYADSVKGRFTISRDNSKNTLYLQMNSLRPEDTALYYCTIGGSLSRSSQGTLVTVSSA
IC50 (M) BxPC-3, xCELLigence human TDC assay [2]: > 1e-07 M
IC50 (M) HepG2, xCELLigence human TDC assay [2]: 1.11e-10 M
IC50 (M) Huh-7, xCELLigence human TDC assay [2]: 1.58e-10 M
IC50 (M) NCI-H23, xCELLigence human TDC assay [2]: > 1e-07 M
IC50 (M) NCI-H661, xCELLigence human TDC assay [2]: 2.59e-10 M

B4: A022600426 (other)
chain: DVQLVESGGGVVQPGGSLRLSCVASGYVHKINFYGWYRQAPGKEREKVAHISIGDQTDYADSAKGRFTISRDESKNTVYLQMNSLRPEDTAAYYCRALSRIWPYDYWGQGTLVTVSSGGGGSEVQLVESGGGVVQPGGSLRLSCAASGSIFRSVFSSSTMEWYRQAPGKKRELVARIAPGEGTYYGALYADSVKGRFTISRDNAKNTVYLQMNSLRPEDTALYYCASGVAWGQGTLVTVSSGGGGSGGGGSGGGGSGGGGSEVQLVESGGGVVQPGGSLRLSCAASGFTFSSFAMTWVRRPPGKGLEWVATITNKGVTSYADSVKGRFTISRDNAKNTLYLQMNSLRPEDTALYICANARRTGPRAPTDIGSYRGQGTLVTVSSGGGGSGGGSEVQLVESGGGVVQPGGSLRLSCAASGFTFRSFGMSWVRQAPGKGPEWVSSISGSGSDTLYADSVKGRFTISRDNSKNTLYLQMNSLRPEDTALYYCTIGGSLSRSSQGTLVTVSSA
IC50 (M) BxPC-3, xCELLigence human TDC assay [2]: > 1e-07 M
IC50 (M) HepG2, xCELLigence human TDC assay [2]: 1.25e-10 M
IC50 (M) Huh-7, xCELLigence human TDC assay [2]: 1.09e-10 M
IC50 (M) NCI-H23, xCELLigence human TDC assay [2]: > 1e-07 M
IC50 (M) NCI-H661, xCELLigence human TDC assay [2]: 2.64e-10 M

B5: A022600175 (other)
chain: DVQLVESGGGVVQPGGSLRLSCVASGYVHKINFYGWYRQAPGKEREKVAHISIGDQTDYADSAKGRFTISRDESKNTVYLQMNSLRPEDTAAYYCRALSRIWPYDYWGQGTLVTVSSGGGGSEVQLVESGGGLVQPGGSLRLSCVASGFTFSSFAMTWVRRPPGKGLEWVATITNGGVTSYRDSVKGRFTISRDNAKNTLYLEMTSLNPEDTAVYICANARRTGPRAPTDIGSYRGQGTLVTVSSGGGGSGGGSEVQLVESGGGLVQPGGSLRLSCVASGSIFRSVFSSSTMEWYRQPPGKKRELVARIAPGDGTNYGALYADSVKGRFTISRDDAKKTVDLQMNSLKPEDTGVYFCASGVAWGQGTLVTVSSGGGGSGGGGSGGGGSGGGGSGGGGSGGGGSGGGGSEVQLVESGGGVVQPGGSLRLSCAASGFTFRSFGMSWVRQAPGKGPEWVSSISGSGSDTLYADSVKGRFTISRDNSKNTLYLQMNSLRPEDTALYYCTIGGSLSRSSQGTLVTVSSA
HepG2 on Incucyte IC50 [3]: 527 pM
HepG2 on Incucyte Max % killing [3]: 96%
Huh7 on xCELLigence IC50 [3]: 58.6 pM
Huh7 on xCELLigence Max % killing [3]: 99%
HepG2 on Incucyte IC50 [1]: 527 pM
HepG2 on Incucyte Max % killing [1]: 96%
Huh7 on xCELLigence IC50 [1]: 58.6 pM
Huh7 on xCELLigence Max % killing [1]: 99%

B6: A022600412 (other)
chain: DVQLVESGGGVVQPGGSLRLSCVASGYVHKINFYGWYRQAPGKEREKVAHISIGDQTDYADSAKGRFTISRDESKNTVYLQMNSLRPEDTAAYYCRALSRIWPYDYWGQGTLVTVSSGGGGSEVQLVESGGGVVQPGGSLRLSCAASGFTFSSFAMTWVRRPPGKGLEWVATITNAGVTSYADSVKGRFTISRDNAKNTLYLQMNSLRPEDTALYICANARRTGPRAPTDIGSYRGQGTLVTVSSGGGGSGGGGSGGGGSGGGGSEVQLVESGGGVVQPGGSLRLSCAASGFTFRSFGMSWVRQAPGKGPEWVSSISGSGSDTLYADSVKGRFTISRDNSKNTLYLQMNSLRPEDTALYYCTIGGSLSRSSQGTLVTVSSA
IC50 (M) BxPC-3, xCELLigence human TDC assay [2]: > 1e-07 M
IC50 (M) HepG2, xCELLigence human TDC assay [2]: 3.82e-10 M
IC50 (M) Huh-7, xCELLigence human TDC assay [2]: 1.53e-09 M
IC50 (M) NCI-H661, xCELLigence human TDC assay [2]: 6.18e-10 M

B7: A022600169 (other)
chain: DVQLVESGGGLVQPGGSLRLSCVASGFTFSSFAMTWVRRPPGKGLEWVATITNGGVTSYRDSVKGRFTISRDNAKNTLYLEMTSLNPEDTAVYICANARRTGPRAPTDIGSYRGQGTLVTVSSGGGGSEVQLVESGGGVVQPGGSLRLSCVASGYVHKINFYGWYRQAPGKEREKVAHISIGDQTDYADSAKGRFTISRDESKNTVYLQMNSLRPEDTAAYYCRALSRIWPYDYWGQGTLVTVSSGGGGSEVQLVESGGGLVQPGGSLRLSCVASGSIFRSVFSSSTMEWYRQPPGKKRELVARIAPGDGTNYGALYADSVKGRFTISRDDAKKTVDLQMNSLKPEDTGVYFCASGVAWGQGTLVTVSSGGGGSGGGGSGGGGSGGGGSGGGGSGGGGSGGGGSEVQLVESGGGVVQPGGSLRLSCAASGFTFRSFGMSWVRQAPGKGPEWVSSISGSGSDTLYADSVKGRFTISRDNSKNTLYLQMNSLRPEDTALYYCTIGGSLSRSSQGTLVTVSSA
HepG2 on Incucyte IC50 [4]: 641 pM
HepG2 on Incucyte Max % killing [4]: 81%
Huh7 on xCELLigence IC50 [4]: 1020 pM
Huh7 on xCELLigence Max % killing [4]: 61%

B8: A022600172 (other)
chain: DVQLVESGGGVVQPGGSLRLSCVASGYVHKINFYGWYRQAPGKEREKVAHISIGDQTDYADSAKGRFTISRDESKNTVYLQMNSLRPEDTAAYYCRALSRIWPYDYWGQGTLVTVSSGGGGSEVQLVESGGGLVQPGGSLRLSCVASGFTFSSFAMTWVRRPPGKGLEWVATITNGGVTSYRDSVKGRFTISRDNAKNTLYLEMTSLNPEDTAVYICANARRTGPRAPTDIGSYRGQGTLVTVSSGGGGSGGGSEVQLVESGGGVVQPGGSLRLSCAASGFTFRSFGMSWVRQAPGKGPEWVSSISGSGSDTLYADSVKGRFTISRDNSKNTLYLQMNSLRPEDTALYYCTIGGSLSRSSQGTLVTVSSGGGGSGGGSEVQLVESGGGLVQPGGSLRLSCVASGSIFRSVFSSSTMEWYRQPPGKKRELVARIAPGDGTNYGALYADSVKGRFTISRDDAKKTVDLQMNSLKPEDTGVYFCASGVAWGQGTLVTVSSA
HepG2 on Incucyte IC50 [4]: 601 pM
HepG2 on Incucyte Max % killing [4]: 81%
Huh7 on xCELLigence IC50 [4]: 67 pM
Huh7 on xCELLigence Max % killing [4]: 90%

B9: A022600179 (other)
chain: DVQLVESGGGVVQPGGSLRLSCVASGYVHKINFYGWYRQAPGKEREKVAHISIGDQTDYADSAKGRFTISRDESKNTVYLQMNSLRPEDTAAYYCRALSRIWPYDYWGQGTLVTVSSGGGGSEVQLVESGGGLVQPGGSLRLSCVASGFTFSSFAMTWVRRPPGKGLEWVATITNGGVTSYRDSVKGRFTISRDNAKNTLYLEMTSLNPEDTAVYICANARRTGPRAPTDIGSYRGQGTLVTVSSGGGGSGGGSEVQLVESGGGVVQPGGSLRLSCAASGFTFRSFGMSWVRQAPGKGPEWVSSISGSGSDTLYADSVKGRFTISRDNSKNTLYLQMNSLRPEDTALYYCTIGGSLSRSSQGTLVTVSSA
HepG2 on Incucyte IC50 [1]: 2920 pM
HepG2 on Incucyte Max % killing [1]: 76%
Huh7 on xCELLigence IC50 [1]: 6130 pM
Huh7 on xCELLigence Max % killing [1]: 66%
